The target in test [1] is low-affinity NGF binding sites on murine unfractionated sIg^+ B cells (mouse) (UniProt Q9Z0W1). The test can be described thus: equilibrium binding of 125I-NGF on acid-treated murine splenic B lymphocytes (unfractionated sIg+ cells), low-affinity sites.
The target in test [2] is p75^NGFR (human, on B lymphocytes) (human) (UniProt P08138). The test is described as follows: equilibrium binding of 125I-NGF, Scatchard analysis, large (in vivo activated) human tonsil B cells, low-affinity class of sites.
Sequence of UniProt P08138 (P08138 29-427): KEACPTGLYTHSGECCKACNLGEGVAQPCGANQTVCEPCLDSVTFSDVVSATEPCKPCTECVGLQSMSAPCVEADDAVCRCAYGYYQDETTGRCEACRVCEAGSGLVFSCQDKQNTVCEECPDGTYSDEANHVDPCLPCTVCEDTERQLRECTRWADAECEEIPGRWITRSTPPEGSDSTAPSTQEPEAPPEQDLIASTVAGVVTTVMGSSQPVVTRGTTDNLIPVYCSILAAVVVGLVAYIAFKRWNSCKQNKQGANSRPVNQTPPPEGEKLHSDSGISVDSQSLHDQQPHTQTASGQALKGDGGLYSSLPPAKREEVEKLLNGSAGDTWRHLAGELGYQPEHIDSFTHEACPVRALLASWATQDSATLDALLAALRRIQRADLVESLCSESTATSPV
Test [3] deals with high-affinity NGF binding sites on murine unfractionated sIg^+ B cells (mouse) (UniProt Q3UFB7). The test is described as follows: equilibrium binding of 125I-NGF on acid-treated murine splenic B lymphocytes (unfractionated sIg+ cells), high-affinity sites.
Sequence of UniProt Q3UFB7 (Q3UFB7 34-799): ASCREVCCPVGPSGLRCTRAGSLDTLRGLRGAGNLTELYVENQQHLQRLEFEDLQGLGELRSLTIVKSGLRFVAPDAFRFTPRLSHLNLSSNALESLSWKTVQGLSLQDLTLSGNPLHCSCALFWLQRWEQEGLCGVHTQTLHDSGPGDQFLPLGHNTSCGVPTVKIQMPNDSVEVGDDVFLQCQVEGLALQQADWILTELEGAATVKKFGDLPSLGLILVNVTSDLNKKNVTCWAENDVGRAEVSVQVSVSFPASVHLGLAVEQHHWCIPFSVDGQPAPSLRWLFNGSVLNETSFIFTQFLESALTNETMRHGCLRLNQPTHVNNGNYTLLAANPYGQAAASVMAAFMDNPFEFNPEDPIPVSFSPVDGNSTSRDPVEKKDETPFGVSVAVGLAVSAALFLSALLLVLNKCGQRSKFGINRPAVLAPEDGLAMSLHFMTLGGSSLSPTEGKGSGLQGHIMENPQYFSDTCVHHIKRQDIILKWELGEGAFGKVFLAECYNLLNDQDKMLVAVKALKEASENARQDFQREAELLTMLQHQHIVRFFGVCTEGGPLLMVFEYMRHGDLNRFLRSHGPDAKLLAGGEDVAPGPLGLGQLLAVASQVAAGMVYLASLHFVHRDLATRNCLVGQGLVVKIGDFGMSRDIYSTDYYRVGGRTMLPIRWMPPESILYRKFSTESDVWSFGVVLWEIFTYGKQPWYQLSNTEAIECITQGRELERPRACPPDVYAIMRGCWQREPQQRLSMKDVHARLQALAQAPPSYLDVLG
In test [4] the target is p75^NGFR (human, on B lymphocytes) (human) (UniProt P08138). The test can be described thus: equilibrium binding of 125I-NGF, Scatchard analysis, small resting human B lymphocytes after acid (pH 3.0) treatment, low-affinity receptors.
Test [5] addresses gp39 (CD40 ligand) (human) (UniProt P29965). The test is described as follows: cell-based or functional assay.
Sequence of UniProt P29965 (P29965 whole entry): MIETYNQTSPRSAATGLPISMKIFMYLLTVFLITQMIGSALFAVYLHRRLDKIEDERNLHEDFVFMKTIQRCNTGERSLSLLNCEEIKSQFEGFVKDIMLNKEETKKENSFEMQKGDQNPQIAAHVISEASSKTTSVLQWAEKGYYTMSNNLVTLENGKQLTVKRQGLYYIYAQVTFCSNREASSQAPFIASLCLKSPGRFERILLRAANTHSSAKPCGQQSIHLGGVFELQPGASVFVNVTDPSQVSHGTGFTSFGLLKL

Sequence of UniProt Q9Z0W1 (Q9Z0W1 32-427): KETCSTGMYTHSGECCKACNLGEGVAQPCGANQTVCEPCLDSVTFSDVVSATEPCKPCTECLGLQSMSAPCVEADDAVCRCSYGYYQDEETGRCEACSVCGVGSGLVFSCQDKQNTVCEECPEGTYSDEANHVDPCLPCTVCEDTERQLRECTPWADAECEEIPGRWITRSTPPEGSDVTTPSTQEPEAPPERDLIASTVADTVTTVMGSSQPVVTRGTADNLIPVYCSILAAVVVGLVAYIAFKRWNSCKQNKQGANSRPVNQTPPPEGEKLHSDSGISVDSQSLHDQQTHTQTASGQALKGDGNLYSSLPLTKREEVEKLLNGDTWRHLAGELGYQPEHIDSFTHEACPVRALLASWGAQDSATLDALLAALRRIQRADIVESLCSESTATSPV

Turning to “^125I-NGF (Nerve Growth Factor, radio-iodinated, Amersham) (ligand)”, the Kd in test [1] was determined as 1.1 nM; in test [2] it was 1 nM; in test [3], 0.135 nM; in test [4], 1 nM. For the same substance, the binding sites per cell (binding sites per cell) in test [1] is 1e+06; in test [3], 4800. Further, the binding sites/cell (binding sites/cell) in test [2] and in test [4] was 1e+06 in each case.

For the substance “soluble CD40 pentamer (from UniProt P25942 21-193)”, in test [5], the IgA (ng/ml) in supernatants of PWM-stimulated human PBMNC, PWM + CD40µ (CD4µ control 9,865) turned out to be 4790 ng/mL; the IgG (ng/ml) in supernatants of PWM-stimulated human PBMNC, PWM + CD40µ (CD4µ control 1,024) was 554 ng/mL; the IgM (ng/ml) in supernatants of PWM-stimulated human PBMNC, PWM + CD40µ (CD4µ control 928) was 1530 ng/mL.

The term Kd denotes the free concentration of one partner at which half of the binding sites on the other are occupied at equilibrium, for simple one-to-one binding. Read a low Kd as tighter binding.

These data come from patent US20020052313A1.
